Assay [1] addresses T1, 人AXL蛋白胞外段-人IgG1Fc段融合蛋白 (AXL-Fc) (human, UniProt P30530 26-451).
T1 construct: extracellular domain; Expressed in CHO-K1 cells; also called 靶抗原AXL-Fc; not shown: human IgG1 Fc fragment
T1 sequence (looked up): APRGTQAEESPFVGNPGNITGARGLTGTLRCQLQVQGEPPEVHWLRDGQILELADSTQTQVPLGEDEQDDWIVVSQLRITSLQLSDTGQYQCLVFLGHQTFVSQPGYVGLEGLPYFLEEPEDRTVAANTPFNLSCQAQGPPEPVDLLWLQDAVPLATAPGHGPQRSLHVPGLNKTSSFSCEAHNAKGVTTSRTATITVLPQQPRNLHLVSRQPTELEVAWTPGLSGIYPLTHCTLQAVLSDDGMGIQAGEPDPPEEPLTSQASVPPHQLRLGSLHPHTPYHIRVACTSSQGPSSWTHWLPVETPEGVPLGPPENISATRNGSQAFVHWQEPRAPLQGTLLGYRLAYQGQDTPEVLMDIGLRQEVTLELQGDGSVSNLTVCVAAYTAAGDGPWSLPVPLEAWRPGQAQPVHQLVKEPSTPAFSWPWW
The assay is described as follows: ELISA, AXL-Fc coated at 1μg/ml, antibody titrated, OD450.

The target in assay [2] is T2, BSA(BOVOGEN) (UniProt P02769 25-607).
T2 construct: Control coating
In words: ELISA, protein coated at 1μg/ml, C3D3 detected with HRP goat anti-human IgG. A general note: An ELISA detects its analyte on a solid surface through an enzyme-linked reagent.

For assay [3], the target named is T3, A549细胞表面AXL (UniProt P30530 26-894, limits assumed).
T3 construct: whole, on cells; Endogenous AXL on A549 cells, flow cytometry; also called AXL on A549 cells
T3 sequence (looked up): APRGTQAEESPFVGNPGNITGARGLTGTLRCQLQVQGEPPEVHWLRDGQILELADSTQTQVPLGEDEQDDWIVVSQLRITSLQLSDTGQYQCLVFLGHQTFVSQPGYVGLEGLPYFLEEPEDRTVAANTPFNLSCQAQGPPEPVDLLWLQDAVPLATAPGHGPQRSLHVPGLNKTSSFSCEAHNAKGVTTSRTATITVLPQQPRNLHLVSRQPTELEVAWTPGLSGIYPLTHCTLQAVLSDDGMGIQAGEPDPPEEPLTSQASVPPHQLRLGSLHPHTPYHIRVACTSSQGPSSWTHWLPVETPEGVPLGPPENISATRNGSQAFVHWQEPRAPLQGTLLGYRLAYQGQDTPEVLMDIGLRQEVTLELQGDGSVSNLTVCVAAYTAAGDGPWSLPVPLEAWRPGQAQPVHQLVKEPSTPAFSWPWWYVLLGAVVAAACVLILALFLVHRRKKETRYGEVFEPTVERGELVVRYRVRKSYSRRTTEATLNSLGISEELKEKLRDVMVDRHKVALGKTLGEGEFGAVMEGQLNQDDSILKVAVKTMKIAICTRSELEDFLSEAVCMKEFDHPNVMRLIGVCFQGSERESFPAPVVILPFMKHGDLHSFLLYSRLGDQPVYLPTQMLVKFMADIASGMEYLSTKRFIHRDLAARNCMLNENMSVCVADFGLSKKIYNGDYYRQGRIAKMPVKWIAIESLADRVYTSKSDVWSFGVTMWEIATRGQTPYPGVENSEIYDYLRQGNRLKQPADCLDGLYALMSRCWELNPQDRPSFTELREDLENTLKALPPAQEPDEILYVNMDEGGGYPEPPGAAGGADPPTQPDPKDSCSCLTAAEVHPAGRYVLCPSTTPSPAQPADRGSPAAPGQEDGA
In words: flow cytometry on A549 cells, C3D3 diluted to 20μg/ml and mixed with an equal volume of cells, PE mouse anti-human IgG. For orientation: A flow cytometer gives signals particle by particle.

T2 sequence (P02769 25-607 limits assumed): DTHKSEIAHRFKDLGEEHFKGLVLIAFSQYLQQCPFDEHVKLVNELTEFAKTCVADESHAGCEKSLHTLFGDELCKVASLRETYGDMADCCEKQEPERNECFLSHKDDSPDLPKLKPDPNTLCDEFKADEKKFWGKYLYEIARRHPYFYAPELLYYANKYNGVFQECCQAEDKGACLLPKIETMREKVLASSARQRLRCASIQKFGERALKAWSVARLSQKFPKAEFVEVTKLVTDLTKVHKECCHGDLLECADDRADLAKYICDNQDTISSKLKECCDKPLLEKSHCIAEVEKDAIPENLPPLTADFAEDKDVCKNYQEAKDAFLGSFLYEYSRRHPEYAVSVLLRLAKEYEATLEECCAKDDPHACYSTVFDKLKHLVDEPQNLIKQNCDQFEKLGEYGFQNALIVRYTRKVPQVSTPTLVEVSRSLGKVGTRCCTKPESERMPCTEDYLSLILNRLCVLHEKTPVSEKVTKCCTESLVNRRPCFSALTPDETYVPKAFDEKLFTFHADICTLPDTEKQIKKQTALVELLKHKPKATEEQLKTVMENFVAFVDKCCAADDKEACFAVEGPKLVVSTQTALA

B1: 3D3抗体 (antibody, V domains shown)
VH: EVKLLESGGGLVQPEGSLKLSCVASGFDFRRYWMSWVRQAPGKGLEWIGEINPAGSTINQTPSLKDKFIISRDNAKNTLYLQMSKVRSEDTALYYCVRLSVVFYYYGMDYWGQGTSVTVSS
VL: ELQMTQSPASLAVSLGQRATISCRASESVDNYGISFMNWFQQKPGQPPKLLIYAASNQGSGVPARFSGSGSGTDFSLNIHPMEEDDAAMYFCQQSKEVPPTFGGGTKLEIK
notes: also called 3D3 antibody
With B1, the binding result in assay [1] is reported as “binds”.

B2: C3D3(Chimeric 3D3)抗体 (antibody, human IgG1, kappa, V domains shown)
VH: B1 VH
VL: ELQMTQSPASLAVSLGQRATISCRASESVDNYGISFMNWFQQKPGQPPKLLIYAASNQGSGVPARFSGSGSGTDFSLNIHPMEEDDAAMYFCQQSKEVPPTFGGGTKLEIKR
notes: Copies of 2 follow from the whole IgG format, not from a printed number; also called C3D3 antibody
Consider B2, for which the results for the binding result in assay [1], in assay [2] and in assay [3] were “binds”, “no binding” and “binds”, respectively.

Values taken from CN107759691A (HANGZHOU SHANGJIAN BIOTECHNOLOGY CO LTD, dated 2018).
